This test addresses soluble HRP-conjugated spike-RBD construct (HRP-RBD) of the SARS-CoV-2 neutralizing antibody ELISA a (SARS-CoV-2) (UniProt P0DTC2).

For the substance “positive control reagent of the SARS-CoV-2 neutralizing antibody ELISA assay kit (Creative Diagnostics)”, the percent inhibition was found to be 82.5%.

(Values after patent US20250242012A1.)
